Target: PGDH3-mCherry (protease-free, released from PGDH3-mCherry-TEV-mVenus by TEV cleavage) (Arabidopsis thaliana) (UniProt Q9LT69)
Assay: mass photometry; TwoMP instrument, 5 nM protein in PBS, 60 s movies

stoichiometry N: 2
Substance: PGDH3-mCherry (protease-free, released from PGDH3-mCherry-TEV-mVenus by TEV cleavage) (from UniProt Q9LT69 39-588) (enzyme)
